Measurements as given in patent US20240082402A1 (ELPIS BIOPHARMACEUTICALS, published 2024).

Tests used:
[1] = biological target: T1, full-length human CD19 on transfected K562 cells (human, UniProt P15391 20-556); experiment: FACS, scFv at 200 nM on CD19 K562 cells, Alexa Fluor 647 anti-His detection, % positive cells
T1 construct: whole, on cells; K562 clone transfected with pCMV6-Entry; also called CD19 K562; CD19/K562; not shown: flag or Myc tag at the C-terminus
T1 sequence (looked up): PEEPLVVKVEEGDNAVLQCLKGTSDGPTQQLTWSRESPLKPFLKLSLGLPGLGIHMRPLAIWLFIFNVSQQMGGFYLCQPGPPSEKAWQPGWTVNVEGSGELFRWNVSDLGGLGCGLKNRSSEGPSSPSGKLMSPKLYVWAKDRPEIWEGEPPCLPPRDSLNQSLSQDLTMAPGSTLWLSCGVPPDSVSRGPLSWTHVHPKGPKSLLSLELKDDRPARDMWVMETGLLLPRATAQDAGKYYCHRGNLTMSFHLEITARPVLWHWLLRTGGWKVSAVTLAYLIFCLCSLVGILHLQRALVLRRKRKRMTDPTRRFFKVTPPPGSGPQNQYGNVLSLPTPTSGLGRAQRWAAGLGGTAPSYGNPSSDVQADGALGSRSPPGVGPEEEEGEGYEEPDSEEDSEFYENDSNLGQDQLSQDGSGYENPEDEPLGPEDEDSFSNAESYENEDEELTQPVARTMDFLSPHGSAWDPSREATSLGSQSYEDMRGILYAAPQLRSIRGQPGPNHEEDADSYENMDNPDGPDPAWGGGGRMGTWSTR
Protocol: (§1) Cells were spun down at 1300 rpm for 5 minutes at 4° C. to remove unbound antibodies. Cells were then washed once with 200 iaL of PBS per well. […] Samples were then spun down at 1300 rpm for 5 minutes at 4° C. and washed twice with 200uL of 1×PBS per well. The resultant samples were reconstituted in 200 uL of 1×PBS and read on Attune™ NxT Flow Cytometer.

[2] = biological target: T1, full-length human CD19 on transfected …; experiment: cell-based or functional assay
[3] = biological target: full-length human CD22 on transfected K562 cells (human, UniProt P20273 20-847); experiment: cell-based or functional assay
[4] = biological target: human CD19 and human CD22 co-expressed on transfected K562 cells (human, UniProt P15391 20-556; P20273 20-847); experiment: cell-based or functional assay
[5] = biological target: T1, full-length human CD19 on transfected …; experiment: FACS, bispecific scFv at 200 nM on CD19 K562 cells, Alexa Fluor 647 anti-His detection, % positive cells
Protocol: as §1

B1: EPC-001-4 (scFv)
scFv (VH-linker-VL): EVQLVQSGAEVKKPGASVKVSCKASGYTFTSYGISWVRQAPGQGLEWMGWISAYNGNTNYAQKLQGRVTMTTDTSTSTAYMELRSLRSDDTAVYYCARDYGDPSGDDYWGQGTLVTVSSGGGGSGGGGSGGGGSEIVLTQSPATLSVSPGEGVTLSCRASQSVSSNLAWYQQRPGQAPRLLIYGASIKATDVPDRFSGGGSGTDFTLSISNLQSEDFAVYYCQQYHTWPPVTFGGGTKVEIK
notes: also called anti-CD22 monospecific scFv; parental anti-CD22 scFv
binding result [1]: no binding (tested: 200 nM)

B2: EPC-001-19 (bispecific CAR; G4S linker; co-expressed with EGFR), on transduced human T cells (other)
chain: EVQLVQSGAEVKKPGASVKVSCKASGYTFTSYGISWVRQAPGQGLEWMGWISAYNGNTNYAQKLQGRVTMTTDTSTSTAYMELRSLRSDDTAVYYCARDYGDPSGDDYWGQGTLVTVSSGGGGSGGGGSGGGGSEIVLTQSPATLSVSPGEGVTLSCRASQSVSSNLAWYQQRPGQAPRLLIYGASIKATDVPDRFSGGGSGTDFTLSISNLQSEDFAVYYCQQYHTWPPVTFGGGTKVEIKGGGGSQVQLQQWGAGLLKPSETLSLTCAVYGGSFSGYYWTWIRQPPGKGLEWIGEINHGGSSNYNPSLKSRVTISVDTSKKQFSLNLNSVTAADTAVYYCARGLGYRSGWYEVENAFDIWGQGTMVTVSSGGGGSGGGGSGGGGSQPVLTQPPSVSVAPGQTARITCGGNKIESRSVHWYQQKPGQAPVLVVYDDGARPSGIPERLSGSNSGDTATLTISRVEPGDEADYYCQVWDGSSVIFGGGTKLTVLESKYGPPCPPCPMFWVLVVVGGVLACYSLLVTVAFIIFWVKRGRKKLLYIFKQPFMRPVQTTQEEDGCSCRFPEEEEGGCELRVKFSRSADAPAYQQGQNQLYNELNLGRREEYDVLDKRRGRDPEMGGKPRRKNPQEGLYNELQKDKMAEAYSEIGMKGERRRGKGHDGLYQGLSTATKDTYDALHMQALPPR
IFNγ/Granzyme B Double Positive Cell % (CD4+) [2]: 10.9% | IFNγ/Granzyme B Double Positive Cell % (CD8+) [2]: 82% | IFNγ/Granzyme B Double Positive Cell % (CD4+) [3]: 0.92% | IFNγ/Granzyme B Double Positive Cell % (CD8+) [3]: 68.5% | IFNγ/Granzyme B Double Positive Cell % (CD4+) [4]: 3.01% | IFNγ/Granzyme B Double Positive Cell % (CD8+) [4]: 74.9%

B3: EPC-001-5 (bispecific antibody)
tandem scFv, anti-CD19 scFv - linker - anti-CD22 scFv - Flag - His: QVQLQQWGAGLLKPSETLSLTCAVYGGSFSGYYWTWIRQPPGKGLEWIGEINHGGSSNYNPSLKSRVTISVDTSKKQFSLNLNSVTAADTAVYYCARGLGYRSGWYEVENAFDIWGQGTMVTVSSGGGGSGGGGSGGGGSQPVLTQPPSVSVAPGQTARITCGGNKIESRSVHWYQQKPGQAPVLVVYDDGARPSGIPERLSGSNSGDTATLTISRVEPGDEADYYCQVWDGSSVIFGGGTKLTVLGGGGSGGGGSGGGGSGGGGSQVQLVQSGAEVKRPGASVKVSCKASGYTFTSYGISWVRQAPGQGLEWMGWISAYNGNTNYAQKLQGRVTMTTDTSTSTAYMELRSLRSDDTAVYYCARDPGIAVAGTVDYWGQGTLVTVSSGGGGSGGGGSGGGGSEIVMTQSPATLSVSPGEGVTLSCRASQSVSSNLAWYQQRPGQAPRLLIYGASIKATDVPDRFSGGGSGTDFTLSISNVQSEDFAVYYCQQYHTWTPVTFGGGTKVEIKDYKDDDDKGGHHHHHH
notes: also called EPC-001-5 (bispecific scFv)
binding result [5]: binds

B4: EPC-001-7 (bispecific scFv) (bispecific antibody)
scFv: QVQLQQWGAGLLKPSETLSLTCAVYGGSFSGYYWTWIRQPPGKGLEWIGEINHGGSSNYNPSLKSRVTISVDTSKKQFSLNLNSVTAADTAVYYCARGLGYRSGWYEVENAFDIWGQGTMVTVSSGGGGSGGGGSGGGGSQPVLTQPPSVSVAPGQTARITCGGNKIESRSVHWYQQKPGQAPVLVVYDDGARPSGIPERLSGSNSGDTATLTISRVEPGDEADYYCQVWDGSSVIFGGGTKLTVLGGGGSGGGGSGGGGSGGGGSEVQLVQSGGGVVQPGKSLRLSCAASGFTFSSYGMHWVRQAPGKGLEWVAVIWYDGSNKYYADSVKGRFTISRDNSKNTLYLQMNSLRAEDTAVYYCARDGWTGFDYWGQGTTVTVSSGGGGSGGGGSGGGGSEIVLTQSPATLSVSPGEGVTLSCRASQSVSSNLAWYQQRPGQAPRLLIYGASIKATDVPDRFSGGGSGTDFTLSISNLQSEDFAVYYCQQYHTWPPVTFGGGTKVEIKDYKDDDDKGGHHHHHH
notes: Expressed in E. coli periplasm (pET22b, Rosetta II), Ni-purified; detected with an anti-His antibody
binding result [5]: binds

B5: EPC-001-8 (bispecific scFv) (bispecific antibody)
scFv: EVQLVQSGGGVVQPGKSLRLSCAASGFTFSSYGMHWVRQAPGKGLEWVAVIWYDGSNKYYADSVKGRFTISRDNSKNTLYLQMNSLRAEDTAVYYCARDGWTGFDYWGQGTTVTVSSGGGGSGGGGSGGGGSEIVLTQSPATLSVSPGEGVTLSCRASQSVSSNLAWYQQRPGQAPRLLIYGASIKATDVPDRFSGGGSGTDFTLSISNLQSEDFAVYYCQQYHTWPPVTFGGGTKVEIKGSTSGSGKPGSGEGSTKGQVQLQQWGAGLLKPSETLSLTCAVYGGSFSGYYWTWIRQPPGKGLEWIGEINHGGSSNYNPSLKSRVTISVDTSKKQFSLNLNSVTAADTAVYYCARGLGYRSGWYEVENAFDIWGQGTMVTVSSGGGGSGGGGSGGGGSQPVLTQPPSVSVAPGQTARITCGGNKIESRSVHWYQQKPGQAPVLVVYDDGARPSGIPERLSGSNSGDTATLTISRVEPGDEADYYCQVWDGSSVIFGGGTKLTVLDYKDDDDKGGHHHHHH
notes: Expressed in E. coli periplasm, Ni-purified
binding result [5]: binds

B6: EPC-001-9 (bispecific scFv) (bispecific antibody)
scFv: QVQLQQWGAGLLKPSETLSLTCAVYGGSFSGYYWTWIRQPPGKGLEWIGEINHGGSSNYNPSLKSRVTISVDTSKKQFSLNLNSVTAADTAVYYCARGLGYRSGWYEVENAFDIWGQGTMVTVSSGGGGSGGGGSGGGGSQPVLTQPPSVSVAPGQTARITCGGNKIESRSVHWYQQKPGQAPVLVVYDDGARPSGIPERLSGSNSGDTATLTISRVEPGDEADYYCQVWDGSSVIFGGGTKLTVLGGGGSGGGGSGGGGSGGGGSEVQLVQSGAEVKKPGASVKVSCKASGYTFTSYGISWVRQAPGQGLEWMGWISAYNGNTNYAQKLQGRVTMTTDTSTSTAYMELRSLRSDDTAVYYCARDYGDPSGDDYWGQGTLVTVSSGGGGSGGGGSGGGGSEIVLTQSPATLSVSPGEGVTLSCRASQSVSSNLAWYQQRPGQAPRLLIYGASIKATDVPDRFSGGGSGTDFTLSISNLQSEDFAVYYCQQYHTWPPVTFGGGTKVEIKDYKDDDDKGGHHHHHH
notes: as for B5
binding result [5]: binds

B7: EPC-001-6 (bispecific antibody)
tandem scFv, anti-CD22 scFv - linker - anti-CD19 scFv - Flag - His: QVQLVQSGAEVKRPGASVKVSCKASGYTFTSYGISWVRQAPGQGLEWMGWISAYNGNTNYAQKLQGRVTMTTDTSTSTAYMELRSLRSDDTAVYYCARDPGIAVAGTVDYWGQGTLVTVSSGGGGSGGGGSGGGGSEIVMTQSPATLSVSPGEGVTLSCRASQSVSSNLAWYQQRPGQAPRLLIYGASIKATDVPDRFSGGGSGTDFTLSISNVQSEDFAVYYCQQYHTWTPVTFGGGTKVEIKGSTSGSGKPGSGEGSTKGQVQLQQWGAGLLKPSETLSLTCAVYGGSFSGYYWTWIRQPPGKGLEWIGEINHGGSSNYNPSLKSRVTISVDTSKKQFSLNLNSVTAADTAVYYCARGLGYRSGWYEVENAFDIWGQGTMVTVSSGGGGSGGGGSGGGGSQPVLTQPPSVSVAPGQTARITCGGNKIESRSVHWYQQKPGQAPVLVVYDDGARPSGIPERLSGSNSGDTATLTISRVEPGDEADYYCQVWDGSSVIFGGGTKLTVLDYKDDDDKGGHHHHHH
notes: also called EPC-001-6 (bispecific scFv)
binding result [5]: binds

B8: EPC-001-10 (bispecific scFv) (bispecific antibody)
scFv: EVQLVQSGAEVKKPGASVKVSCKASGYTFTSYGISWVRQAPGQGLEWMGWISAYNGNTNYAQKLQGRVTMTTDTSTSTAYMELRSLRSDDTAVYYCARDYGDPSGDDYWGQGTLVTVSSGGGGSGGGGSGGGGSEIVLTQSPATLSVSPGEGVTLSCRASQSVSSNLAWYQQRPGQAPRLLIYGASIKATDVPDRFSGGGSGTDFTLSISNLQSEDFAVYYCQQYHTWPPVTFGGGTKVEIKGSTSGSGKPGSGEGSTKGQVQLQQWGAGLLKPSETLSLTCAVYGGSFSGYYWTWIRQPPGKGLEWIGEINHGGSSNYNPSLKSRVTISVDTSKKQFSLNLNSVTAADTAVYYCARGLGYRSGWYEVENAFDIWGQGTMVTVSSGGGGSGGGGSGGGGSQPVLTQPPSVSVAPGQTARITCGGNKIESRSVHWYQQKPGQAPVLVVYDDGARPSGIPERLSGSNSGDTATLTISRVEPGDEADYYCQVWDGSSVIFGGGTKLTVLDYKDDDDKGGHHHHHH
notes: as for B5
binding result [5]: binds
